Assay results taken from patent publication US20250011411A1 (JIANGSU HENGRUI PHARMACEUTICALS, published 2025).
Substitutions are numbered along the chain they refer to.

T1: human sclerostin (SOST) (human, UniProt Q9BQB4 24-213)
T1 construct: also called human SOST; h-SOST
T1 sequence (looked up): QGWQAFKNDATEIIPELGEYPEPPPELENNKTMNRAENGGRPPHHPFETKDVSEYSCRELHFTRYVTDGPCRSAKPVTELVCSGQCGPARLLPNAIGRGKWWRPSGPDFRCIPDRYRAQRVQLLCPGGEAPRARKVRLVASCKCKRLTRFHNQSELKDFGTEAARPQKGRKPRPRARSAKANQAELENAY

B1: murine anti-human SOST monoclonal antibody Ab-1 (antibody, V domains shown)
VH: EVQLQQSGPELVKPGTSVKIPCQTSGYTFTDYNLDWLKQRPGESLEWIGDIDPNNGDILYNQKFRDKATLTVDTSSNTAYLELRSLTSEDTAVYYCARRWAYYFDYWGQGTTLTISS
VL: NIVMTQTPKLLFVSAGDRITITCKASQSVSNDVAWYQQKPGQSPKLLIYYTSNRFTGVPDRFTGSGYGTDFTLTINTVQAEDLAVYFCQQDYSSPVTFGAGTKLELK
notes: Murine hybridoma antibody; also called monoclonal hybridoma cell strain Ab-1; murine antibody Ab-1
B2: humanized anti-SOST antibody Ab-5 (antibody, human IgG4 S228P, kappa, V domains shown)
VH: EVQLVQSGAEVKKPGASVKVSCKASGYTFTDYNLDWLRQAPGEGLEWIGDIDPNDGDILYNQKFRDRVTMTTDTSTSTAYMELRSLRSDDTAVYYCARRWAYYFDYWGQGTTVTVSS
VL: DIVMTQSPSSLSASVGDRVTITCKASQSVSNDVAWYQQKPGKSPKLLIYYTSNRFTGVPDRFSGSGSGTDFTLTISSLQPEDFATYFCQQDYSSPVTFGGGTKVEIKR
notes: Human IgG4 heavy chain and kappa light chain
B3: humanized anti-SOST antibody Ab-10 (antibody, human IgG1, kappa, V domains shown)
VH: B2 VH with L37V, E43Q, I48M, D55N
VL: B2 VL with V3Q, S43A, D60S, F87Y
notes: kappa light chain
B4: humanized anti-SOST antibody Ab-9 (antibody, human IgG4 S228P, kappa, V domains shown)
VH: B2 VH with D55N
VL: B2 VL with D1N
notes: as for B2

Experiments:
human sclerostin (SOST) [1] = molecular target: T1, human sclerostin (SOST); assay: blocking of the binding of human SOST to human LRP-6
human sclerostin (SOST) [2] = molecular target: T1, human sclerostin (SOST); assay: ELISA binding to human sclerostin (assay not given; taken from the text of Example 1)
human sclerostin (SOST) [3] = molecular target: T1, human sclerostin (SOST); assay: binding ELISA, antigen-receptor binding blocking experiments, Biacore; no numbers given

Row | Binder | IC50 (human sclerostin (SOST) [1]) | EC50 (human sclerostin (SOST) [2]) | binding result (human sclerostin (SOST) [3])
1 | B1 | 9.91 nM | 0.701 nM | –
2 | B2 | – | – | binds
3 | B3 | – | – | binds
4 | B4 | – | – | binds
